Data published in patent publication US20250215100A1 (HARBOUR BIOMED SHANGHAI, published 2025).
Substitutions are numbered along the chain they refer to. Numbers in names are those of the source.

B1: PR006239 (antibody, human IgG1, kappa)
heavy: QVQLVQSGAEVKKPGASVKVSCKASGYTFAGYYMYWVRQAPGQGLEWMGWINPDSGAPTYAQKFQGRVTMTRDTSISTAYMELSRLRSDDTAVYYCAREKIYYGSGNYYPSFDYWGQGTLVTVSSASTKGPSVFPLAPSSKSTSGGTAALGCLVKDYFPEPVTVSWNSGALTSGVHTFPAVLQSSGLYSLSSVVTVPSSSLGTQTYICNVNHKPSNTKVDKKVEPKSCDKTHTCPPCPAPEAAGAPSVFLFPPKPKDTLMISRTPEVTCVVVDVSHEDPEVKFNWYVDGVEVHNAKTKPREEQYNSTYRVVSVLTVLHQDWLNGKEYKCKVSNKALPAPIEKTISKAKGQPREPQVYTLPPSREEMTKNQVSLTCLVKGFYPSDIAVEWESNGQPENNYKTTPPVLDSDGSFFLYSKLTVDKSRWQQGNVFSCSVMHEALHNHYTQKSLSLSPGK
light: DIQLTQSPSFLSASVGDRVTITCRASQGISSYLAWYQQKPGKAPKLLIYAASTLQSGVPSRFSGSGSGTEFTLTISSLQPEDFATYYCQQLNSYPWTFGQGTKVEIKRTVAAPSVFIFPPSDEQLKSGTASVVCLLNNFYPREAKVQWKVDNALQSGNSQESVTEQDSKDSTYSLSSTLTLSKADYEKHKVYACEVTHQGLSSPVTKSFNRGEC
notes: Variable regions of PR003379 on human IgG1 with L234A, L235A, G237A; no mutation in the variable region
B2: PR006495 (antibody, human IgG1, kappa, V domains shown)
VH: QVQLVQSGAEVKKPGASVKVSCKASGYTFAGYYMYWVRQAPGQGLEWMGWINPDSGAPTYAQKFQGRVTMTRDTSISTAYMELSRLRSDDTAVYYCAREKIYYGSGNYYPSFDYWGQGTLVTVSS
VL: DIQLTQSPSFLSASVGDRVTITCRASQGISSYLAWYQQKPGKAPKLLIYAASTLQSGVPSRFSGSGSGTEFTLTISSLQPEDFATYYCQQLASYPWTFGQGTKVEIKR
notes: PR003379 variant L:N92A; human IgG1 L234A, L235A, G237A
B3: PR006496 (antibody, human IgG1, kappa, V domains shown)
VH: B2 VH
VL: B2 VL with A92F
notes: PR003379 variant L:N92F; human IgG1 L234A, L235A, G237A
B4: PR006497 (antibody, human IgG1, kappa, V domains shown)
VH: B2 VH
VL: B2 VL with A92Y
notes: PR003379 variant L:N92Y; human IgG1 L234A, L235A, G237A
B5: PR006498 (antibody, human IgG1, kappa, V domains shown)
VH: B2 VH
VL: B2 VL with A92I
notes: PR003379 variant L:N92I; human IgG1 L234A, L235A, G237A
B6: PR006499 (antibody, human IgG1, kappa, V domains shown)
VH: B2 VH
VL: B2 VL with A92W
notes: PR003379 variant L:N92W; human IgG1 L234A, L235A, G237A
B7: PR006500 (antibody, human IgG1, kappa, V domains shown)
VH: B2 VH
VL: B2 VL with A92M
notes: PR003379 variant L:N92M; human IgG1 L234A, L235A, G237A
B8: PR006502 (antibody, human IgG1, kappa, V domains shown)
VH: B2 VH
VL: B2 VL with A92D
notes: PR003379 variant L:N92D; human IgG1 L234A, L235A, G237A
B9: PR006504 (antibody, human IgG1, kappa, V domains shown)
VH: B2 VH
VL: B2 VL with A92V
notes: PR003379 variant L:N92V; human IgG1 L234A, L235A, G237A
B10: PR006510 (antibody, human IgG1, kappa, V domains shown)
VH: B2 VH
VL: B2 VL with A92N, S93R
notes: PR003379 variant L:S93R; human IgG1 L234A, L235A, G237A
B11: PR006511 (antibody, human IgG1, kappa, V domains shown)
VH: B2 VH
VL: B2 VL with A92N, S93N
notes: PR003379 variant L:S93N; human IgG1 L234A, L235A, G237A
B12: PR006515 (antibody, human IgG1, kappa, V domains shown)
VH: B2 VH
VL: B2 VL with A92N, S93M
notes: PR003379 variant L:S93M; human IgG1 L234A, L235A, G237A

Biological target: T1, human CD40 on cells (human, UniProt P25942 21-277)
T1 construct: whole, on cells; The cell line used is named in each row's assay; also called hCD40; TNFRSF5
T1 sequence (P25942 21-277): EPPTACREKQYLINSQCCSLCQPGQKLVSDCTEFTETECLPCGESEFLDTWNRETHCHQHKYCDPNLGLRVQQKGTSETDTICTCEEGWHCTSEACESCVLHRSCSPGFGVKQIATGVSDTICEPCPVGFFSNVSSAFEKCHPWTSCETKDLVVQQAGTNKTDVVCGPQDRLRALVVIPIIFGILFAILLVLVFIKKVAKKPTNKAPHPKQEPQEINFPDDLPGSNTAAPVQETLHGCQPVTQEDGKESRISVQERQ
Assay: FACS, CHO-K1/hCD40 cells
Description: (§1) Flow cytometry (FACS) was used to detect the binding ability of the CD40 antibody to cells, such as, CHO-K1/hCD40 highly expressing human CD40 (constructed by Beijing Kyinno Biotechnology), CHO-K1/cyCD40 highly expressing cynomolgus monkey CD40 (constructed by Beijing Kyinno Biotechnology) and lymphoma cell highly expressing human CD40, Raji (ATCC, #CCL-86). Specifically, the cells were digested and resuspended with complete medium (F-12K for CHO-K1 cells; and RPMI-1640 for Raji cells); and the cells were adjusted to a cell density of 1×10⁶ cells/mL. The cells were seeded in a 96-well V-bottom plate (Corning, #3894) at 100 μL/well, and the antigen binding protein to be tested at 2x final concentration was then added at 100 μL/well and mixed evenly, with the highest final concentration of the antigen binding protein of 300 nM, a total of 8 concentrations, and 5-fold concentration gradient dilution. hIgG (Crownbio, #C0002) was used as a negative control, and the positive control molecule was the molecule in Table 1-5. The cells were incubated at 4° C. for 1 hours in the dark. After the incubation, the cells were rinsed twice by adding pre-chilled PBS at 100 μL/well, and centrifuged at 500 g at 4° C. for 5 minutes, and the supernatant was discarded. Then, a fluorescent secondary antibody (goat anti-human IgG (H+L) secondary antibody, Alexa Fluor® 488 conjugate, Invitrogen, #A11013, 1:1000 dilution) was added at 100 µL/well, and the cells were incubated at 4° C. for 30 minutes in the dark. The cells were washed twice with pre-chilled PBS at 200 μL/well, and centrifuged at 500 g at 4° C. for 5 minutes, and the supernatant was discarded. Finally, the cells were resuspended in pre-chilled PBS at 200 μL/well. The fluorescence signal values were read using a BD FACS CANTOII flow cytometer or ACEA NovoCyte flow cytometer, and the data were processed and analyzed using FlowJo v10 software (FlowJo, LLC).
(§2) Data processing and graphical analysis were performed using GraphPad Prism 8 software. The binding curve of the antibody to the target cell and parameters, such as EC50 value were obtained by four-parameter nonlinear fitting.

Binder | EC50 | Maximum MFI
B1 | 6.67 nM | 88600 MFI
B2 | 4.9 nM | 79400 MFI
B3 | 4.8 nM | 88200 MFI
B4 | 5.09 nM | 92300 MFI
B5 | 4.97 nM | 77700 MFI
B6 | 4.65 nM | 84200 MFI
B7 | 5.01 nM | 85900 MFI
B8 | 4.55 nM | 88500 MFI
B9 | 4.87 nM | 86000 MFI
B10 | 4.98 nM | 83000 MFI
B11 | 4.99 nM | 79400 MFI
B12 | 4.59 nM | 86300 MFI

Biological target: T1, human CD40 on cells
Assay: FACS, Raji cells
Description: as §1, §2

Binder | EC50 | Maximum MFI
B1 | 0.332 nM | 9050 MFI
B2 | 0.356 nM | 8870 MFI
B3 | 0.277 nM | 9300 MFI
B4 | 0.252 nM | 9200 MFI
B5 | 0.344 nM | 8980 MFI
B6 | 0.301 nM | 8980 MFI
B7 | 0.351 nM | 8980 MFI
B8 | 0.287 nM | 9040 MFI
B9 | 0.35 nM | 12200 MFI
B10 | 0.376 nM | 12400 MFI
B11 | 0.386 nM | 11800 MFI
B12 | 0.322 nM | 8900 MFI

Biological target: T1, human CD40 on cells
Assay: cell-based or functional assay

Binder | EC50 (nM), crosslinked, HEK293-hCD40-NFkB reporter | EC50 (nM), uncrosslinked, HEK293-hCD40-NFkB reporter | Fold (EC50 in the absence of crosslinking/EC50 in the presence of crosslinking) | Maximum fold (fold), crosslinked | Maximum fold (fold), uncrosslinked
B1 | 0.098 nM | 0.173 nM | 1.77 fold | 5.76 fold | 4.58 fold
B2 | 0.109 nM | 0.905 nM | 8.28 fold | 5.54 fold | 4.92 fold
B3 | 0.217 nM | 0.43 nM | 1.98 fold | 5.03 fold | 4.43 fold
B4 | 0.158 nM | 0.479 nM | 3.03 fold | 4.77 fold | 4.61 fold
B5 | 0.196 nM | 0.462 nM | 2.36 fold | 5.53 fold | 4.4 fold
B6 | 0.405 nM | 1.04 nM | 2.58 fold | 5.28 fold | 3.92 fold
B7 | 0.169 nM | 0.301 nM | 1.78 fold | 5.55 fold | 4.33 fold
B8 | 0.17 nM | 0.321 nM | 1.88 fold | 4.95 fold | 4.63 fold
B9 | 0.157 nM | 0.708 nM | 4.5 fold | 5.21 fold | 4.7 fold
B10 | 0.0423 nM | 0.125 nM | 2.96 fold | 4.66 fold | 4.54 fold
B11 | 0.16 nM | 0.815 nM | 5.1 fold | 5.19 fold | 4.5 fold
B12 | 0.0669 nM | 0.268 nM | 4.01 fold | 4.91 fold | 4.54 fold

Biological target: T2, cynomolgus monkey CD40 on cells (cynomolgus monkey, UniProt G7PG38 21-278)
T2 construct: also called cyCD40; CHO-K1/cyCD40
T2 sequence (G7PG38 entry or part of it limits assumed): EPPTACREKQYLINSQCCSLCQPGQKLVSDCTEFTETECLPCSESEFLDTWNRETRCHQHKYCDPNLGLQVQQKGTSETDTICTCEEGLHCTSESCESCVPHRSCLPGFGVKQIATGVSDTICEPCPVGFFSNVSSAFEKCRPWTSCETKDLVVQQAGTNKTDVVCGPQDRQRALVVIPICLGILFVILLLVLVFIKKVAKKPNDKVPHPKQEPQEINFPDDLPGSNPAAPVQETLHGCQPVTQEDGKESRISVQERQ
Assay: FACS, CHO-K1/cyCD40 cells
Description: as §1, §2

Binder | EC50 | Maximum MFI
B1 | 4.41 nM | 51800 MFI
B2 | 4.41 nM | 48000 MFI
B3 | 3.5 nM | 49700 MFI
B4 | 3.54 nM | 51700 MFI
B5 | 4.04 nM | 47300 MFI
B6 | 3.2 nM | 49800 MFI
B7 | 4.4 nM | 48500 MFI
B8 | 3.96 nM | 47700 MFI
B9 | 3.71 nM | 51000 MFI
B10 | 4.55 nM | 44300 MFI
B11 | 3.68 nM | 40300 MFI
B12 | 3.75 nM | 50600 MFI
